Data: patent US20110217401

Target: human apolipoprotein B (apoB) of serum low density lipoprotein particles (UniProt P04114)
Sequence (P04114 28-4563): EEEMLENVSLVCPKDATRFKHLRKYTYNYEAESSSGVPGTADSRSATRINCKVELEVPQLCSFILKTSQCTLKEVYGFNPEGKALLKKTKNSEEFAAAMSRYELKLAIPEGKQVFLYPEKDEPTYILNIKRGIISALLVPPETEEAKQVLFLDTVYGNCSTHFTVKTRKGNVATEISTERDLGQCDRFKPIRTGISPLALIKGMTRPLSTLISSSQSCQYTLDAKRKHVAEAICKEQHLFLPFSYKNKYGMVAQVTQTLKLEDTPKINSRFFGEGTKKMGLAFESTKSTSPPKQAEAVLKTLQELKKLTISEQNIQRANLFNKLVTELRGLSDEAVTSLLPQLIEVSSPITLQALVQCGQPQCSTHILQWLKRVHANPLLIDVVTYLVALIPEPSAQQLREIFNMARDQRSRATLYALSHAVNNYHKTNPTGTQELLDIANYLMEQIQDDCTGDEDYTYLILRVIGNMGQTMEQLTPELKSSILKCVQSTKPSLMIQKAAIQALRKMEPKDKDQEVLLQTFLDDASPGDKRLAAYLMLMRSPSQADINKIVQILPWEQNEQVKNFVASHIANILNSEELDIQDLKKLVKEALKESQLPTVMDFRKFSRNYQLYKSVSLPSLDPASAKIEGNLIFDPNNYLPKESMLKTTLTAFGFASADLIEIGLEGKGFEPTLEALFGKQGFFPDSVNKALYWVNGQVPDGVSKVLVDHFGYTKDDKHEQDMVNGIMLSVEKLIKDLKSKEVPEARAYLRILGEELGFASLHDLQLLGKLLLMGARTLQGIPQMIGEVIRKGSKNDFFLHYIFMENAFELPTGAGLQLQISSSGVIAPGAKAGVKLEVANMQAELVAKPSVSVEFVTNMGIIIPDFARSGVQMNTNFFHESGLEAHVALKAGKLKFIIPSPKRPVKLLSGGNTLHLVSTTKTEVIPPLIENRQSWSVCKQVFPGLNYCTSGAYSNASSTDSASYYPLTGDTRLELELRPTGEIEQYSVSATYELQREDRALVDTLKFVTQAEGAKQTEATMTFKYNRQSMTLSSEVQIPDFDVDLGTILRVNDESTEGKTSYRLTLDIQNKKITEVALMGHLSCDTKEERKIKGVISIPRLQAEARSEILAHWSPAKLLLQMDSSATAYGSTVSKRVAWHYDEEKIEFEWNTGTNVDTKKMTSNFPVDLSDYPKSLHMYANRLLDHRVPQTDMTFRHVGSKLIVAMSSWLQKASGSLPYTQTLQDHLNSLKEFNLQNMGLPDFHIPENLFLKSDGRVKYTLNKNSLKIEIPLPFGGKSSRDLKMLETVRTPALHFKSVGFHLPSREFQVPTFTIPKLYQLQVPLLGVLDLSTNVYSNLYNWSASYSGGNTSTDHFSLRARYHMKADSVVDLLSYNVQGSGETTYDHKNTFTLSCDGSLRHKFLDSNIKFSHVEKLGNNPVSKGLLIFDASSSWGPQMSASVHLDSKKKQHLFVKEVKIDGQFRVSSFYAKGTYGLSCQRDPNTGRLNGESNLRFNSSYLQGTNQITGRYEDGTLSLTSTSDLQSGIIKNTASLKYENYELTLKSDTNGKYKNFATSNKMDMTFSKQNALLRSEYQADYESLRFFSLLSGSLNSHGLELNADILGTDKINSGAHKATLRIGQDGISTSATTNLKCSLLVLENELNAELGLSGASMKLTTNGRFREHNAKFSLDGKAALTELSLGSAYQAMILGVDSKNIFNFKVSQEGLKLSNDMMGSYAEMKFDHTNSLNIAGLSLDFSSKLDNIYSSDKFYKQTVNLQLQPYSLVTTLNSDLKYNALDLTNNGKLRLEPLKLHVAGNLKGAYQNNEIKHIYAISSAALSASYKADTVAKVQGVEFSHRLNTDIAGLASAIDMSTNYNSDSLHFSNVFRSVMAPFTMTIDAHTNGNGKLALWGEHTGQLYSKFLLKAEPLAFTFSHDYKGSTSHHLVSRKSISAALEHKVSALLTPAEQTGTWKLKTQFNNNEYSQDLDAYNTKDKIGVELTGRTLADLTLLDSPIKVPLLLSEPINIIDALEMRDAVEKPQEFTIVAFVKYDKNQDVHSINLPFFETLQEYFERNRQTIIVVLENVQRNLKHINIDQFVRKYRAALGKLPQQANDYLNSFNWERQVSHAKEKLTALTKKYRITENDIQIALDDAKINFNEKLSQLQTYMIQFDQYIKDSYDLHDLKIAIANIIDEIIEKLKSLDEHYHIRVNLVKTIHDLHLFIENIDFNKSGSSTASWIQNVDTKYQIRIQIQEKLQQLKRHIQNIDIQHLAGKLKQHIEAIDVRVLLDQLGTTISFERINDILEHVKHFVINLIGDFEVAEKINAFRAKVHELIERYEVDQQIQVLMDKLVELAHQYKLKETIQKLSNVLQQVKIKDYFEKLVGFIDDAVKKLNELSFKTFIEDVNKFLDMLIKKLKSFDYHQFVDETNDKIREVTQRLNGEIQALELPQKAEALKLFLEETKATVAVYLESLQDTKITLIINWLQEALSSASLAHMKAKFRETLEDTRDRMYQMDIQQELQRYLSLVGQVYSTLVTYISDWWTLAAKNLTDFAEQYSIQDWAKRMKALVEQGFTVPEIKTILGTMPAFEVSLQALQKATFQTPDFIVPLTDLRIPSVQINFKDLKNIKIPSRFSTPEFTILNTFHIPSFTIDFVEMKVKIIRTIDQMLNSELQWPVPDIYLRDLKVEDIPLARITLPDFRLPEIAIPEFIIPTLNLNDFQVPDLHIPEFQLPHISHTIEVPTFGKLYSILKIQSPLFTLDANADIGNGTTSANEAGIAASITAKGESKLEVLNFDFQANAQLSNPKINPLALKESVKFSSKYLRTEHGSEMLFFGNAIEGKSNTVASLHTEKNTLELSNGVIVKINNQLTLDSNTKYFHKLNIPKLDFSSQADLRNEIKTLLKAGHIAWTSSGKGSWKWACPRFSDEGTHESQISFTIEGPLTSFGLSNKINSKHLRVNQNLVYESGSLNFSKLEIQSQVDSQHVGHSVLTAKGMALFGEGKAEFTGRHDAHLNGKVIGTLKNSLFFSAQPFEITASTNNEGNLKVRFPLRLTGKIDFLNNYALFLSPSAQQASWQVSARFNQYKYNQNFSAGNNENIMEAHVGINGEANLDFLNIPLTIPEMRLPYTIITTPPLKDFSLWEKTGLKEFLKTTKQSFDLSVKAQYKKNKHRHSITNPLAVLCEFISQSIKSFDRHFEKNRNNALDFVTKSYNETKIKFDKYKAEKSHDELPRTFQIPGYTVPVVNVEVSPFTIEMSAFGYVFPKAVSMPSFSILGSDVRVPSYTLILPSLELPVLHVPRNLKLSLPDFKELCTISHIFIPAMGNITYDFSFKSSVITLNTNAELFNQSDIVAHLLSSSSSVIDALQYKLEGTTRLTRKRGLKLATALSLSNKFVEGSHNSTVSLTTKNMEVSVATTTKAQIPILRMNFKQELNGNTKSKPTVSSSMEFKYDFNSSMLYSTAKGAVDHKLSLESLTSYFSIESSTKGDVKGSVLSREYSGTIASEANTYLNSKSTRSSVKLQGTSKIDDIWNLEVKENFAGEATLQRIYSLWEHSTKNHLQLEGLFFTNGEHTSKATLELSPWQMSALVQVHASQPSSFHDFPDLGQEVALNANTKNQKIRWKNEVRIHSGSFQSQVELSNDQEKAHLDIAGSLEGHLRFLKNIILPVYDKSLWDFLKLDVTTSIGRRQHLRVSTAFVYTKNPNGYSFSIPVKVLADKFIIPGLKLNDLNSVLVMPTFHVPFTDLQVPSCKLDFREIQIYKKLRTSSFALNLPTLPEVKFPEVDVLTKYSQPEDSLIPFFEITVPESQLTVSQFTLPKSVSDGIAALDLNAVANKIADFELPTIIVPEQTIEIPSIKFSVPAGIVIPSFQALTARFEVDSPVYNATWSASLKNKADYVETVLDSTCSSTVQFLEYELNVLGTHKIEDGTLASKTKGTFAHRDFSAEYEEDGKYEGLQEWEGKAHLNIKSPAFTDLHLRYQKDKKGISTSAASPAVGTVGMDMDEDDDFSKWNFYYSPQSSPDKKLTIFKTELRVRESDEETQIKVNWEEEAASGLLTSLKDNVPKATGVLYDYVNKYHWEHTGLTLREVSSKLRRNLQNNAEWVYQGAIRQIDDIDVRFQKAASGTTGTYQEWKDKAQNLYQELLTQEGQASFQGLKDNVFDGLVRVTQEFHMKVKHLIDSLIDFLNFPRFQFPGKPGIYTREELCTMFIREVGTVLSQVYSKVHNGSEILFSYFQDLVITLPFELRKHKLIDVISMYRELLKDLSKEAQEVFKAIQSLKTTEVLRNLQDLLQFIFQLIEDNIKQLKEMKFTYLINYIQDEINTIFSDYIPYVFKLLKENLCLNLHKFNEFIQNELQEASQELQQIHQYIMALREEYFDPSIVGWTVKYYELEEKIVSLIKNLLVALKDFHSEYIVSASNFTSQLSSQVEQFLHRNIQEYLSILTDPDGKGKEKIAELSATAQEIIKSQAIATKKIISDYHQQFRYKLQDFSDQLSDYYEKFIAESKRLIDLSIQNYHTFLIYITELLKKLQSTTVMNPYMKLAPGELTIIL

recombinant arNOX SF2 (recombinant apoBNOX, TM9SF2 expressed in E. coli from pET11a-TM9SF2)
Oxidation of protein thiols of human apoB (DTNB reactivity), nmoles SH oxidized, complete mixture, 2 h (nmoles SH oxidized): 500 | Oxidation of protein thiols of human apoB (DTNB reactivity), relative units, complete mixture, 2 h (relative units): 25
